# B1: ssRNA-16 (ssRNA)
# RNA: AUAUGGAAGAGCCCUA
# Molecular target: SARS-CoV-2 nucleocapsid N-terminal domain (N-NTD) (SARS-CoV-2, UniProt P0DTC9 44-180)
# Test: BLI
# Settings: protein: recombinant; tags: 6xHis-SUMO removed by SUMO protease; biotinylated for BLI; 15N-labeled for NMR; single strand
binder,measurement,value
B1,Kd,8.37 µM

# Reference: paper PMC10051649, “Suramin Disturbs the Association of the N-Terminal Domain of SARS-CoV-2 Nucleocapsid Protein with RNA”
